Measured values reported in patent publication US20190062420A1 (Janssen / Centocor, published 2019).
Where two headings read alike, the source gives them in different places.

How the values were obtained:
[1] = target: T1, human FcγRIIB (NM_004001) expressed on cells (human, UniProt P31994 43-310); experiment: flow cytometry; Raji cells (express predominantly FcγRIIB)
T1 construct: Transiently expressed on Expi293F cells; also called Expi293F FcγRIIB; HEK293F cells expressing FcγRIIB
T1 sequence: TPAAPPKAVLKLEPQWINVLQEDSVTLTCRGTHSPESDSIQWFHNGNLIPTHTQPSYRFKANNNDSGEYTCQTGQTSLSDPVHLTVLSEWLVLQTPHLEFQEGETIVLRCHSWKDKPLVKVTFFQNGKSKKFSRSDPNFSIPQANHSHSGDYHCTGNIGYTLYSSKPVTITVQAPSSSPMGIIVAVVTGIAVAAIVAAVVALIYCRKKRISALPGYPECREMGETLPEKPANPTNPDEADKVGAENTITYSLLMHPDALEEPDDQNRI

[2] = target: T1, human FcγRIIB (NM_004001) expressed on …; experiment: flow cytometry; Expi293F cells transfected with FcγRIIB
[3] = target: T1, human FcγRIIB (NM_004001) expressed on …; experiment: as above; remark: listed apart in the source
Protocol: Plasmids expressing cDNAs encoding human FcγRI (NM_000566) (SEQ ID NO: 44), FcγRIIA (NM_021642) (SEQ ID NO: 2), FcγRIIB (NM_004001) (SEQ ID NO: 3), and FcγRIIIA (NM_000569) (SEQ ID NO: 45) (Origene) were transiently transfected into Expi293F cells by ExpiFectamine293 transfection kit (Life Technologies). Flow cytometry assays were performed 48 h after transfection.
2×10⁵ cells per well were seeded in 96-well plate and blocked in BSA Stain Buffer (BD Biosciences, San Jose, USA) for 30 min at 4° C. Cells were incubated with test mAbtyrin on ice for 1.5 h at 4° C. After being washed twice with BSA stain buffer, the cells were incubated with R-PE labeled anti-human or anti-mouse IgG secondary antibody (Jackson Immunoresearch Laboratories) for 45 min at 4° C. The cells were washed twice in stain buffer and then resuspended in 150 μL of Stain Buffer containing 1:200 diluted DRAQ7 live/dead stain (Cell Signaling Technology, Danvers, USA). PE and DRAQ7 signals of the stained cells were detected by Miltenyi MACSQuant flow cytometer (Miltenyi Biotec, Auburn, USA) using B2 and B4 channel respectively. Live cells were gated on DRAQ7 exclusion and the geometric mean fluorescence signals were determined for at least 10,000 live events collected. FlowJo software (Tree Star) was used for analysis. Data was plotted as the logarithm of antibody concentration versus mean fluorescence signals. Nonlinear regression analysis was performed by GraphPad Prism 6 (GraphPad Software, Inc.) and EC₅₀ values were calculated.

[4] = target: T1, human FcγRIIB (NM_004001) expressed on …; experiment: cell-based or functional assay
[5] = target: T2, FcγRIIA protein (human, UniProt P12318 36-217, biotinylated (SureLINK Biotin Kit) in the ELISA of Example 1); experiment: ELISA; FcγRIIA protein coated on plate, anti-human IgG-HRP detection
T2 construct: Soluble/recombinant antigen used in ELISA; also called bt-FcγRIIA; recombinant FcγRIIA protein
T2 sequence: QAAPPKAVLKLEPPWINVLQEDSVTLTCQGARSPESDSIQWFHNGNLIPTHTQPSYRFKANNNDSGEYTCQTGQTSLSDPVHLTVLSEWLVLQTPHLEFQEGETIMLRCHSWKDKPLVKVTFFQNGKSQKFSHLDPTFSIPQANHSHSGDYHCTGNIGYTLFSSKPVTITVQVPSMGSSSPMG
Protocol: Effect of the mAbtyrins on T cell activation was evaluated. Briefly, recombinant FcγRIIB or FcγRIIA protein was coated on the plate to provide the crosslinking activity. For T cell activation assay, 100 μL of 30 ng/mL anti-CD3 antibody (OKT3) and 1 μg/mL FcγRIIB or FcγRIIA protein in DPBS were coated in U-bottomed 96-well tissue culture plate overnight. CD4 positive T cells were isolated from PBMC by negative selection. OX40 expression was induced by culturing the isolated T cells in the presence of 1 μg/mL PHA overnight. On the assay day, the coating solution in the plate were aspirated and 150 μL RPMI media was added to block the plate. The cultured T cells were washed three times by RPMI culture media and between 25,000 to 50,000 CD4 positive T cells were seeded in each well in the assay plate. Test mAbtyrins were added to the cells and the plate was incubated for 3 days. T cell activation was assessed by the induction of IFNγ or TNFα production, which was quantitated by human IFNγ or TNFα ELISA detection kit (Biolegend). Prior to T cell activation assay, the binding affinity of mAbtyrins to immobilized FcγRIIB or FcγRIIA protein were evaluated by an ELISA assay. […] The binding of mAbtyrins to immobilized FcγRIIB or FcγRIIA protein were detected by HRP-conjugated anti-Human IgG(γ) secondary antibody and quantitated by ELISA assay using TMB substrate.

B1: OX40SF2IgG2sigma_R2BS29_HC-C (bispecific antibody)
heavy: QVQLVQSGAEVKKPGSSVKVSCKASGYTFKDYTMHWVRQAPGQGLEWIGGIYPNNGGSTYNQNFKDRVTLTADKSTSTAYMELSSLRSEDTAVYYCARMGYHGPHLDFDVWGQGTTVTVSSASTKGPSVFPLAPCSRSTSESTAALGCLVKDYFPEPVTVSWNSGALTSGVHTFPAVLQSSGLYSLSSVVTVPSSNFGTQTYTCNVDHKPSNTKVDKTVERKCCVECPPCPAPPAAASSVFLFPPKPKDTLMISRTPEVTCVVVDVSAEDPEVQFNWYVDGVEVHNAKTKPREEQFNSTFRVVSVLTVLHQDWLNGKEYKCKVSNKGLPSSIEKTISKTKGQPREPQVYTLPPSREEMTKNQVSLTCLVKGFYPSDIAVEWESNGQPENNYKTTPPMLDSDGSFFLYSKLTVDKSRWQQGNVFSCSVMHEALHNHYTQKSLSLSPGKGGGGGSGGGGSGGGGSGGGGSLPAPKNLVVSRVTEDSARLSWTAPDAAFDSFPIYYWEYRVGGEAIVLTVPGSERSYDLTGLKPGTEYFVYINGVKGGEESRPLSAIFTT
light: DIQMTQSPSSLSASVGDRVTITCKASQDVGAAVAWYQQKPGKAPKLLIYWASTRHTGVPSRFSGSGSGTDFTLTISSLQPEDFATYYCQQYINYPLTFGGGTKVEIKRTVAAPSVFIFPPSDEQLKSGTASVVCLLNNFYPREAKVQWKVDNALQSGNSQESVTEQDSKDSTYSLSSTLTLSKADYEKHKVYACEVTHQGLSSPVTKSFNRGEC
notes: mAbtyrin: anti-OX40 antibody OX40SF2, effector silent IgG2sigma, with linker and R2BS29 FN3 domain at the C-terminus of the heavy chain; also called mAbtyrin
For B1, the “fold binding signal over OX40SF2IgG2sigma at 10 µg/mL” value [1] was no less than 6 fold, the EC50 [2] was 0.512 µg/mL and the EC50 [3] was 1.52 µg/mL. For the same binder, the “fold of agonism enhancement upon crosslinking (Daudi cells)” value [4] was 45 fold.

B2: OX40SF2IgG2sigma (antibody)
heavy: QVQLVQSGAEVKKPGSSVKVSCKASGYTFKDYTMHWVRQAPGQGLEWIGGIYPNNGGSTYNQNFKDRVTLTADKSTSTAYMELSSLRSEDTAVYYCARMGYHGPHLDFDVWGQGTTVTVSSASTKGPSVFPLAPCSRSTSESTAALGCLVKDYFPEPVTVSWNSGALTSGVHTFPAVLQSSGLYSLSSVVTVPSSNFGTQTYTCNVDHKPSNTKVDKTVERKCCVECPPCPAPPAAASSVFLFPPKPKDTLMISRTPEVTCVVVDVSAEDPEVQFNWYVDGVEVHNAKTKPREEQFNSTFRVVSVLTVLHQDWLNGKEYKCKVSNKGLPSSIEKTISKTKGQPREPQVYTLPPSREEMTKNQVSLTCLVKGFYPSDIAVEWESNGQPENNYKTTPPMLDSDGSFFLYSKLTVDKSRWQQGNVFSCSVMHEALHNHYTQKSLSLSPGK
light: B1 light
notes: Anti-OX40 antibody, IgG2 sigma isotype (effector silent Fc: V234A, G237A, P238S, H268A, V309L, A330S, P331S against wild type IgG2); control without FN3 domain; also called parental antibody; parental OX40 antibody
With B2 the EC50 [2] was greater than 10 µg/mL, the binding result [5] was “no binding” and the “fold of agonism enhancement upon crosslinking (Daudi cells)” value [4] was 1 fold.
